Measurements from publication PMC3896397.

Target: Recombinant Human VEGF-A165 (human)
Experiment: ELISA; VEGF 165 (0.5 ug) on 96-well plates; serial dilutions (0.05 to 10 uM) of Flag-tagged HSPB1 wild type or C-terminal HSPB1 in PBS plus 1% BSA, 37°C, 2 hours; detected with anti-flag monoclonal antibody; Kd by Scatchard analysis

| Substance | Kd |
| --- | --- |
| C-terminal HSPB1 fragment, secretory HSPB1 (59-203) (from UniProt P04792 59-203) (domain or fragment) | 0.78 µM |
| Flag-tagged secretory wild-type HSPB1 (from UniProt P04792 1-205) (natural protein) | 10.8 µM |
